Tests used:
TNF-α = assay: MST, fluorescently labelled TNF-α, TNFR1 titrated, without SN10
TNFR2 [1] = assay: MST, fluorescently labelled TNFR2, TNF-α titrated, without SN10
TNFR2 [2] = assay: MST competition, fluorescently labelled TNFR2, TNF-α titrated in the presence of 100 µM SN10
TNFR1 = assay: MST, fluorescently labelled TNFR1, TNF-α titrated, without SN10

Substance | Kd (TNF-α) | Kd (TNFR2 [1]) | KD in the presence of 100µM SN10 (TNFR2 [2]) | Kd (TNFR1)
TNFR1 (receptor) | 2.84 nM |  |  | 
TNF-α (ligand) |  | 328 nM | 384 nM | 116 nM
